# Measurements published in patent US20210130804.
# How the values were obtained:
# Assay in all cases: cleavage_in_vitro
# [1] = system: T1, OMNI-53 TXTL (Clostridium sp. AF02-29); details: PAM NRHR general, NAWA specific
# T1 sequence: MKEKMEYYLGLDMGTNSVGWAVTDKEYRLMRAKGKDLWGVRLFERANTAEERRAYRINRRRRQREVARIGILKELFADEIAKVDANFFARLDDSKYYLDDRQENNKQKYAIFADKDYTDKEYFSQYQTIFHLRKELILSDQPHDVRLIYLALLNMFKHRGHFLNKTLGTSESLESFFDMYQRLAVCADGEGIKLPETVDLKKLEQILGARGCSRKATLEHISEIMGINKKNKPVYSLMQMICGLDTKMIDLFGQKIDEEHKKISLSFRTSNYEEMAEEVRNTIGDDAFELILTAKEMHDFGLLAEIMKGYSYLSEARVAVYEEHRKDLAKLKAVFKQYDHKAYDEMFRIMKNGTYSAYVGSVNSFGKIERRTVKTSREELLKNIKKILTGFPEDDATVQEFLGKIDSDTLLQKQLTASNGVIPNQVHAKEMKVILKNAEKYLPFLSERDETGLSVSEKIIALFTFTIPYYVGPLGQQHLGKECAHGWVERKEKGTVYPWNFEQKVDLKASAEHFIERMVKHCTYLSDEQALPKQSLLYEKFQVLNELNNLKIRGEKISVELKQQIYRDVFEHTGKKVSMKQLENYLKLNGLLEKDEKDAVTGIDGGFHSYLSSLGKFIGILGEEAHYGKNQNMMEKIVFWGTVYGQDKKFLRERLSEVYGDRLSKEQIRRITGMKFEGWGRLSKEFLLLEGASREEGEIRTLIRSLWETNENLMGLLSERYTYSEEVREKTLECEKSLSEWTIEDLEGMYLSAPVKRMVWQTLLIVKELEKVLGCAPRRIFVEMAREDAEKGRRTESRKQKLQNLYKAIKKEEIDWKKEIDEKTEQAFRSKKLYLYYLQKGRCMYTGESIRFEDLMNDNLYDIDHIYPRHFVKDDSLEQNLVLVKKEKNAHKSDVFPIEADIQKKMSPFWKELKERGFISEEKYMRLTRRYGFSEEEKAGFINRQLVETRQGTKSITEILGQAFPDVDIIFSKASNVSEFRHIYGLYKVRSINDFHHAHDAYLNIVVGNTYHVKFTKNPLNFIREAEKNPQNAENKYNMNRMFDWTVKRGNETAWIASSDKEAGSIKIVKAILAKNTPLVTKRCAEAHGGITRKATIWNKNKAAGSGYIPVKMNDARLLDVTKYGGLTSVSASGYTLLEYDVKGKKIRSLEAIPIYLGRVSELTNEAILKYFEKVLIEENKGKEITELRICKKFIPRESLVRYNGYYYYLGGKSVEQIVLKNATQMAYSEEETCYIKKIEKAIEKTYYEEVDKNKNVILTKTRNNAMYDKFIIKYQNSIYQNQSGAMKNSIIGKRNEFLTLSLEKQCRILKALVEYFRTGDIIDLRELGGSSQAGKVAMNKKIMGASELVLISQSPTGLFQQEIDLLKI
# [2] = system: T2, OMNI-39 TXTL (Butyrivibrio sp. AC2005); details: PAM NNGHAD general, NNGYAA specific
# T2 sequence: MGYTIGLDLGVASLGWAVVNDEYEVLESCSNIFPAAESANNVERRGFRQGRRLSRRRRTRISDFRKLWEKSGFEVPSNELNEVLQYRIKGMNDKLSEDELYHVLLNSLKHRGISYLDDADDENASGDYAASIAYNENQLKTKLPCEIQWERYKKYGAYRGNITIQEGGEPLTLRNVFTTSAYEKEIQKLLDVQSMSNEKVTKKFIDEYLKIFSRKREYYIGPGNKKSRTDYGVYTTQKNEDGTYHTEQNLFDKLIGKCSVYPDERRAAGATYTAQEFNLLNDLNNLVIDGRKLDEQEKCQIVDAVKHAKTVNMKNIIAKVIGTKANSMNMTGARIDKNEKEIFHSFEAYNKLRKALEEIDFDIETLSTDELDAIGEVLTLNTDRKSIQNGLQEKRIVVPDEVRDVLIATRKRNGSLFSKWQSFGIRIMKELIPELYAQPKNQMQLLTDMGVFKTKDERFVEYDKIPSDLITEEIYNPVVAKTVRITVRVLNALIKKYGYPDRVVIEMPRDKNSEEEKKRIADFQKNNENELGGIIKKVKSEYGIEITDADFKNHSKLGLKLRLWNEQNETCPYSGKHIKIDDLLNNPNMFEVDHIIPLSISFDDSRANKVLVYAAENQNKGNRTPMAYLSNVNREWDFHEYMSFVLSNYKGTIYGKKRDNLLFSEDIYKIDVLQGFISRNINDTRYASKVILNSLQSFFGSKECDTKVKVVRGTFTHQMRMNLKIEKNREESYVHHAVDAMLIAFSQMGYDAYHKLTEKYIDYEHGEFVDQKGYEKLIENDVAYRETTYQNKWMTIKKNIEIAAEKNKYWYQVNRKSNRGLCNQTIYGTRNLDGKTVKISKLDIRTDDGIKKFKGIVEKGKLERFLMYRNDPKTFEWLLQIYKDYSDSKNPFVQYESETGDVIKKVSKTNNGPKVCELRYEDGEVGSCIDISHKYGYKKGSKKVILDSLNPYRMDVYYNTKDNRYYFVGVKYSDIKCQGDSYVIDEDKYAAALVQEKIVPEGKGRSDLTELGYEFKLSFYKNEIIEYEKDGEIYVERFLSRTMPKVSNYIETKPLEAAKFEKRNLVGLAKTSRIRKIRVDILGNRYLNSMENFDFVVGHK
# [3] = system: T3, OMNI-40 TXTL (Aliiarcobacter faecis); details: PAM NYGRV
# T3 sequence: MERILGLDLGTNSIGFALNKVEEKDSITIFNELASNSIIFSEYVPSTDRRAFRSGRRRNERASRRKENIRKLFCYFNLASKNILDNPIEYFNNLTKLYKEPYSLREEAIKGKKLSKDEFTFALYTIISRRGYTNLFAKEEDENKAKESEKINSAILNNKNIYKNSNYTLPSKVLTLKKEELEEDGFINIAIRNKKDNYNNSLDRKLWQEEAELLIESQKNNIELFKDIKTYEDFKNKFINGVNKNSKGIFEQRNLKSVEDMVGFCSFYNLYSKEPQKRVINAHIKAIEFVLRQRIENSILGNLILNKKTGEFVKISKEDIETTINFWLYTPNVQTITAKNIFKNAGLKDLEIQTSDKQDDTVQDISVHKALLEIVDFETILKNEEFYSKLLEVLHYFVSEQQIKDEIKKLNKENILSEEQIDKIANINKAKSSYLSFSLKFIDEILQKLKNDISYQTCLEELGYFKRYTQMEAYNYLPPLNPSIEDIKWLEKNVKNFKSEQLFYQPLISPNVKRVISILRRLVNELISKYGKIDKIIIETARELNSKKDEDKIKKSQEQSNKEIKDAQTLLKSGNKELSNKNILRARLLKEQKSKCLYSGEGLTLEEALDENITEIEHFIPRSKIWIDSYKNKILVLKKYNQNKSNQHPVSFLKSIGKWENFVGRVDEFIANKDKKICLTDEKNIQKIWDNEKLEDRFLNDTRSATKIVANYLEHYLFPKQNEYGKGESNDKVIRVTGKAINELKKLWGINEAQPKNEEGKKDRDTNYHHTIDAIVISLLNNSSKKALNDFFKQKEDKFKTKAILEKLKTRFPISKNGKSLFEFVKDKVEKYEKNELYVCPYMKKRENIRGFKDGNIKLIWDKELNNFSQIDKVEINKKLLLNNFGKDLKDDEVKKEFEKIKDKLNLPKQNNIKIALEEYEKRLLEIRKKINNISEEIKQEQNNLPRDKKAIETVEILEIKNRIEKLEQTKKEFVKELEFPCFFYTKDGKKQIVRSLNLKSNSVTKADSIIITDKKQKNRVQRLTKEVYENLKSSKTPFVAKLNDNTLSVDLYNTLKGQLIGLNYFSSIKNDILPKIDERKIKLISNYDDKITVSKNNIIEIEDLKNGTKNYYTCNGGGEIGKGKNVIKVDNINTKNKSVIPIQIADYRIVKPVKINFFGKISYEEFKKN
# [4] = system: T4, OMNI-50 TXTL (Ezakiella peruensis strain M6.X2); details: PAM NGG
# T4 sequence: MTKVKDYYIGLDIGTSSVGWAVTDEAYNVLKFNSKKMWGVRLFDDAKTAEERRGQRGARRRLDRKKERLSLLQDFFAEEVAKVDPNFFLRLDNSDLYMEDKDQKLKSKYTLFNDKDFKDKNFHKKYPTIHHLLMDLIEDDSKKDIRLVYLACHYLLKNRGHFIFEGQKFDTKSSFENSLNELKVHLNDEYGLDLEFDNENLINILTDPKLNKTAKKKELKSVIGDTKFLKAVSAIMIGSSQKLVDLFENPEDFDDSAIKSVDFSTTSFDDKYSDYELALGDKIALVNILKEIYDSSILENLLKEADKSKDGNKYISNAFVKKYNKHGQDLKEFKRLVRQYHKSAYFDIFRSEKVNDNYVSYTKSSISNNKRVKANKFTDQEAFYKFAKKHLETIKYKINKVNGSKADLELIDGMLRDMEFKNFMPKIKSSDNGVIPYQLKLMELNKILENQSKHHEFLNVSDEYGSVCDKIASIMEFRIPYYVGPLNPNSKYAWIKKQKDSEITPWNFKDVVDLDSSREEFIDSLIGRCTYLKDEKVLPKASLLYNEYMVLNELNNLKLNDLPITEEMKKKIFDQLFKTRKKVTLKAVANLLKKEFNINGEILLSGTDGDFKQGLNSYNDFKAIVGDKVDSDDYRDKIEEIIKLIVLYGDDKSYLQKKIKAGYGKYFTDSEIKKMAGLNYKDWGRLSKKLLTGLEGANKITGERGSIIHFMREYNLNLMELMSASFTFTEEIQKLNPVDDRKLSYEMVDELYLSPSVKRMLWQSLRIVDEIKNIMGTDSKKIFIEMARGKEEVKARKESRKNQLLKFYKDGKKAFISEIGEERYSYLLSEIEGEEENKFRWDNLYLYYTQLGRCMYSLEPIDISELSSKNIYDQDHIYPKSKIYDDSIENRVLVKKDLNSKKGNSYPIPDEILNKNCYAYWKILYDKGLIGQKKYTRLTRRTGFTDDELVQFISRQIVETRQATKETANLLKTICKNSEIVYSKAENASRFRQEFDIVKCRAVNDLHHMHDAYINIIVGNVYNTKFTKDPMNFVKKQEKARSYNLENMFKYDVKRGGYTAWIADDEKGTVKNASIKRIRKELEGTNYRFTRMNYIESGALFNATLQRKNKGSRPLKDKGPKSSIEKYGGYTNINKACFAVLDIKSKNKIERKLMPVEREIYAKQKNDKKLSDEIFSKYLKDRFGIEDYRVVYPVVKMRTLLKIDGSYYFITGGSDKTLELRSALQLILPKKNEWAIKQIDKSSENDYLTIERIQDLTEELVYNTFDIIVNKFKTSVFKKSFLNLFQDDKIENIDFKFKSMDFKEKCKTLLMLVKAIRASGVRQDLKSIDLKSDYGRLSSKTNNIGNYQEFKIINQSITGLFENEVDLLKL
sequence,measurement,setting,value
GGAAGAGCAGAGCCUUGGUCUCGUUUGAGAACCAUGUAAGAAAUUACAUGGUGAGUGCAAAUAAGGAUUAUCCGAAAUUGUAUGCCCGCAUUGUGCGGCAAUAAAAAGGCUCGAAAGAGUCUUUUU / GGAAGAGCAGAGCCTTGGTCTCNNNNNNNN / NNNNNNNNGAGACCAAGGCTCTGCTCTTCC [T2 sgRNA V2 OMNI-53 ; T2 protospacer 8N PAM library],activity (1-depletion score),[1],0.97
GGAAGAGCAGAGCCUUGGUCUCGUUUUAGUACCUAGAGAAAGAAAUUUCUUUAGACCUACUAAAAUAAGGCUUUAUGCCGAGAUUAAAGGAUGCCGACGGGCAUCCUUUUUU / GGAAGAGCAGAGCCTTGGTCTCNNNNNNNN / NNNNNNNNGAGACCAAGGCTCTGCTCTTCC [T2 sgRNA V2 OMNI-39 ; T2 protospacer 8N PAM library],activity (1-depletion score),[2],0.95
GGAAGAGCAGAGCCUUGGUCUCGUUUUGUUACCAUAUGAUUGAAAAUUUAUAUGACCUAACAAAACAAGGGUUUAUCCCGGACUCGGCUCUUCGGAGCCUUUUU / GGAAGAGCAGAGCCTTGGTCTCNNNNNNNN / NNNNNNNNGAGACCAAGGCTCTGCTCTTCC [T2 sgRNA V2 OMNI-40 ; T2 protospacer 8N PAM library],activity (1-depletion score),[3],0.97
GGAAGAGCAGAGCCUUGGUCUCGUUUGAGAGUUAUGUAAGAAAUUACAUGACGAGUUCAAAUAAAAAUUUAUUCAAACCGCCUAUUUAUAGGCCGCAGAUGUUCUGCAUUAUGCUUGCUAUUGCAAGCUUUUUU / GGAAGAGCAGAGCCTTGGTCTCNNNNNNNN / NNNNNNNNGAGACCAAGGCTCTGCTCTTCC [T2 sgRNA V2 OMNI-50 ; T2 protospacer 8N PAM library],activity (1-depletion score),[4],0.98
